biological target: FGFR3 (UniProt P22607); assay: phosphorylation enrichment, bacterial display (enrichment ratio); higher = better substrate or ligand; peptides without Tyr show the background
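Note: 11-residue human phosphosite peptides and single-mutation variants displayed on the E. coli surface, counted by deep sequencing, each peptide's frequency after selection divided by its frequency in the unselected input library; frequency after pTyr selection over input frequency; kinase dosed for 20-30% of maximal phosphorylation in three min.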

Sequence of FGFR3 (P22607 whole entry, looked up): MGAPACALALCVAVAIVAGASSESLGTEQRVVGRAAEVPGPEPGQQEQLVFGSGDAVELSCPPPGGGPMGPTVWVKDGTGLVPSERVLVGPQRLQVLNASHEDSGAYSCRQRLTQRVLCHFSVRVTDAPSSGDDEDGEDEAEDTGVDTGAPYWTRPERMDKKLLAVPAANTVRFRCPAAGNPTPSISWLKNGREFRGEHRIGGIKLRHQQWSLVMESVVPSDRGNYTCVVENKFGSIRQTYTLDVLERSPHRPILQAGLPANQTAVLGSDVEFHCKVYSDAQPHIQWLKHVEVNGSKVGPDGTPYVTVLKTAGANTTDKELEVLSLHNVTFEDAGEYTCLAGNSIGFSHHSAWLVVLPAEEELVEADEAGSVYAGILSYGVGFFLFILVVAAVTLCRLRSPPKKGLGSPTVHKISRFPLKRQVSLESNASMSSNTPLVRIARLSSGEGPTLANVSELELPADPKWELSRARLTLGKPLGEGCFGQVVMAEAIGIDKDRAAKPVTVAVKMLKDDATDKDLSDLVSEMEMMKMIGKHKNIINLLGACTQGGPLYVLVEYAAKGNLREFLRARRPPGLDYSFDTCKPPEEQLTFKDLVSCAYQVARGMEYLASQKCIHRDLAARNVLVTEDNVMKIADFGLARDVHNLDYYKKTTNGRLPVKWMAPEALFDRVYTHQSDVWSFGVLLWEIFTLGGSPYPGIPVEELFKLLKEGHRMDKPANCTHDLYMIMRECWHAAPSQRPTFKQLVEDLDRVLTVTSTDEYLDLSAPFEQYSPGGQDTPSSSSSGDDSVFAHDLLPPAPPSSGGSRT

First: QLHEHCKIHKE [NSMAF_Y626_Y626C]
Second: QPRDIYHQTWA [GBA_Y244_G241R]
The phosphorylation enrichment of the first is lower: 0.651 for the first, 1.38 for the second.

TKHTFYKQPMF [GBA_Y451_D448H] and KAPPTYDNVLQ [CYP3A4_Y347_T349N] are the same in phosphorylation enrichment: 0.482 for the first, 0.482 for the second.

Compared with RGRKVYLEGGF [PRIM2_Y201_D204G], NTFEKYLEEEF [TF_Y669_G671E_YF] is higher in phosphorylation enrichment: 0.446 for the first, 0.754 for the second.

Going from FPPISYLHAIS [MVD_Y276_N278H] to GVTLLYYGRDN [ADGRD1_Y85_Y89D], the phosphorylation enrichment rises from 0.612 to 0.685.

First: SLGSPYGQPPC [PDLIM4_Y137_R142C]
Second: DEYLEHRRIVG [FAM221A_Y20_Y20H]
The phosphorylation enrichment of the first is lower: 0.588 for the first, 0.611 for the second.

Compared with TNQVICLNPPI [DYNC1H1_Y970_Y970C], DFPGNYSGYDD [POLR1C_Y33] is higher in phosphorylation enrichment: 0.62 for the first, 0.913 for the second.

Compared with WYQTKYEELQI [KRT6B_Y360], AFPVSYSSPGA [RET_Y687_S690P] is lower in phosphorylation enrichment: 0.727 for the first, 0.466 for the second.

First: RFVVLYDAELT [ERCC4_Y581_YF]
Second: VLTSKYLGGGG [HBA1_Y141_R142L]
The phosphorylation enrichment of the first is higher: 0.763 for the first, 0.308 for the second.

First: AGAIIYTSRFQ [PFAS_Y538]
Second: ALAHKYRGGGG [HBD_Y146_H147R]
The phosphorylation enrichment of the first is higher: 0.504 for the first, 0.364 for the second.

Going from EYQLPYYNMVP [BMPR1A_Y457] to EKFVPYFDLFM [IPO5_Y530_YF], the phosphorylation enrichment falls from 11.9 to 1.71.

Compared with KGRGEYFAIKA [PRKCD_Y374], KVASVYEALGF [NT5C_Y65_P68L] is lower in phosphorylation enrichment: 2.67 for the first, 0.574 for the second.

First: FADIAYNYRRG [PAH_Y166_H170R]
Second: RKKEEYKMAPF [F8_Y1990_L1994P_YF]
The phosphorylation enrichment of the first is higher: 0.449 for the first, 0.446 for the second.

Compared with LADMNYVHRDL [EPHB2_Y742], QPGTDYKIFRF [FN1_Y1970_L1974R_YF] is higher in phosphorylation enrichment: 0.801 for the first, 1.28 for the second.

First: QSSALYEDCFL [ASS1_Y83_R86C_YF]
Second: HKLSYNEYDFE [BTK_Y40_Y40N]
The phosphorylation enrichment of the first is lower: 0.785 for the first, 0.822 for the second.

SVTCRYSPALN [TP53_Y126_T125R] was tested, and the phosphorylation enrichment was 0.561.

tested on: Fer (mouse); assay: as above

Compared with QLHEHCKIHKE [NSMAF_Y626_Y626C], QPRDIYHQTWA [GBA_Y244_G241R] is higher in phosphorylation enrichment: 0.522 for the first, 0.526 for the second.

Compared with TKHTFYKQPMF [GBA_Y451_D448H], KAPPTYDNVLQ [CYP3A4_Y347_T349N] is higher in phosphorylation enrichment: 0.44 for the first, 1.85 for the second.

Compared with RGRKVYLEGGF [PRIM2_Y201_D204G], NTFEKYLEEEF [TF_Y669_G671E_YF] is lower in phosphorylation enrichment: 0.855 for the first, 0.551 for the second.

Compared with FPPISYLHAIS [MVD_Y276_N278H], GVTLLYYGRDN [ADGRD1_Y85_Y89D] is lower in phosphorylation enrichment: 0.545 for the first, 0.408 for the second.

Going from SLGSPYGQPPC [PDLIM4_Y137_R142C] to DEYLEHRRIVG [FAM221A_Y20_Y20H], the phosphorylation enrichment rises from 0.37 to 0.506.

Going from TNQVICLNPPI [DYNC1H1_Y970_Y970C] to DFPGNYSGYDD [POLR1C_Y33], the phosphorylation enrichment rises from 0.458 to 0.65.

Compared with WYQTKYEELQI [KRT6B_Y360], AFPVSYSSPGA [RET_Y687_S690P] is lower in phosphorylation enrichment: 0.614 for the first, 0.468 for the second.

Compared with RFVVLYDAELT [ERCC4_Y581_YF], VLTSKYLGGGG [HBA1_Y141_R142L] is lower in phosphorylation enrichment: 0.672 for the first, 0.264 for the second.

First: AGAIIYTSRFQ [PFAS_Y538]
Second: ALAHKYRGGGG [HBD_Y146_H147R]
The phosphorylation enrichment of the first is higher: 0.506 for the first, 0.315 for the second.

Going from EYQLPYYNMVP [BMPR1A_Y457] to EKFVPYFDLFM [IPO5_Y530_YF], the phosphorylation enrichment falls from 5.56 to 0.608.

Compared with KGRGEYFAIKA [PRKCD_Y374], KVASVYEALGF [NT5C_Y65_P68L] is higher in phosphorylation enrichment: 0.451 for the first, 4.62 for the second.

First: FADIAYNYRRG [PAH_Y166_H170R]
Second: RKKEEYKMAPF [F8_Y1990_L1994P_YF]
The phosphorylation enrichment of the first is lower: 0.329 for the first, 0.346 for the second.

First: LADMNYVHRDL [EPHB2_Y742]
Second: QPGTDYKIFRF [FN1_Y1970_L1974R_YF]
The phosphorylation enrichment of the first is higher: 0.933 for the first, 0.756 for the second.

Compared with QSSALYEDCFL [ASS1_Y83_R86C_YF], HKLSYNEYDFE [BTK_Y40_Y40N] is lower in phosphorylation enrichment: 16.4 for the first, 0.473 for the second.

SVTCRYSPALN [TP53_Y126_T125R] was tested, and the phosphorylation enrichment was 0.437.

biological target: Fes (UniProt P07332); assay: as above
Sequence (P07332 whole entry, looked up): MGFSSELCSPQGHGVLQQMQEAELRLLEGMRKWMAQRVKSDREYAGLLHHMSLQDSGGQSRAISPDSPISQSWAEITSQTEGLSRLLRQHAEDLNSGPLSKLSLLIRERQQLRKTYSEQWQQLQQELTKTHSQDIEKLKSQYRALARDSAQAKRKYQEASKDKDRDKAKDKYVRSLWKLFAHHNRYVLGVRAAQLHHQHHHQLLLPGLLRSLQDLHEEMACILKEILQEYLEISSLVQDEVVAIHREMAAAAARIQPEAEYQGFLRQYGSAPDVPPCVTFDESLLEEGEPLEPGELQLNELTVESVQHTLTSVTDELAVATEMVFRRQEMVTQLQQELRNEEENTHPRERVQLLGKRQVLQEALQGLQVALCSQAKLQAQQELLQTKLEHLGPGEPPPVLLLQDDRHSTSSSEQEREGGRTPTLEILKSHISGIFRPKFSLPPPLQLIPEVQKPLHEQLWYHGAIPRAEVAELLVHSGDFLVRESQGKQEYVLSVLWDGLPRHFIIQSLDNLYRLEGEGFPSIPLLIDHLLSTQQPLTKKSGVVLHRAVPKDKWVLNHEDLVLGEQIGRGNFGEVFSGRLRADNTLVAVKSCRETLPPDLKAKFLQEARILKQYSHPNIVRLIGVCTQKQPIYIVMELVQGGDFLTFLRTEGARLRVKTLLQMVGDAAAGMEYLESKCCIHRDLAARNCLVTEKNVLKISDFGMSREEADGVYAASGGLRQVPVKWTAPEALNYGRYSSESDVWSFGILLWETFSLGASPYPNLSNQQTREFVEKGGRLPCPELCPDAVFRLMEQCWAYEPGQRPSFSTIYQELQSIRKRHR

Going from QLHEHCKIHKE [NSMAF_Y626_Y626C] to QPRDIYHQTWA [GBA_Y244_G241R], the phosphorylation enrichment rises from 0.612 to 0.913.

Going from TKHTFYKQPMF [GBA_Y451_D448H] to KAPPTYDNVLQ [CYP3A4_Y347_T349N], the phosphorylation enrichment falls from 0.769 to 0.714.

Compared with RGRKVYLEGGF [PRIM2_Y201_D204G], NTFEKYLEEEF [TF_Y669_G671E_YF] is higher in phosphorylation enrichment: 0.642 for the first, 1.26 for the second.

Going from FPPISYLHAIS [MVD_Y276_N278H] to GVTLLYYGRDN [ADGRD1_Y85_Y89D], the phosphorylation enrichment rises from 1 to 1.01.

Compared with SLGSPYGQPPC [PDLIM4_Y137_R142C], DEYLEHRRIVG [FAM221A_Y20_Y20H] is higher in phosphorylation enrichment: 0.835 for the first, 0.883 for the second.

Compared with TNQVICLNPPI [DYNC1H1_Y970_Y970C], DFPGNYSGYDD [POLR1C_Y33] is higher in phosphorylation enrichment: 0.921 for the first, 1.24 for the second.

Compared with WYQTKYEELQI [KRT6B_Y360], AFPVSYSSPGA [RET_Y687_S690P] is lower in phosphorylation enrichment: 1.23 for the first, 0.616 for the second.

First: RFVVLYDAELT [ERCC4_Y581_YF]
Second: VLTSKYLGGGG [HBA1_Y141_R142L]
The phosphorylation enrichment of the first is higher: 1.9 for the first, 0.461 for the second.

First: AGAIIYTSRFQ [PFAS_Y538]
Second: ALAHKYRGGGG [HBD_Y146_H147R]
The phosphorylation enrichment of the first is higher: 0.839 for the first, 0.495 for the second.

Going from EYQLPYYNMVP [BMPR1A_Y457] to EKFVPYFDLFM [IPO5_Y530_YF], the phosphorylation enrichment rises from 1.12 to 1.35.

Going from KGRGEYFAIKA [PRKCD_Y374] to KVASVYEALGF [NT5C_Y65_P68L], the phosphorylation enrichment rises from 0.666 to 0.989.

First: FADIAYNYRRG [PAH_Y166_H170R]
Second: RKKEEYKMAPF [F8_Y1990_L1994P_YF]
The phosphorylation enrichment of the first is higher: 0.702 for the first, 0.623 for the second.

Compared with LADMNYVHRDL [EPHB2_Y742], QPGTDYKIFRF [FN1_Y1970_L1974R_YF] is higher in phosphorylation enrichment: 1.6 for the first, 2.04 for the second.

Compared with QSSALYEDCFL [ASS1_Y83_R86C_YF], HKLSYNEYDFE [BTK_Y40_Y40N] is lower in phosphorylation enrichment: 2.83 for the first, 1.13 for the second.

With SVTCRYSPALN [TP53_Y126_T125R] the phosphorylation enrichment was 0.938.

biological target: Fyn (UniProt P06241); assay: as above
Sequence (P06241 whole entry, looked up): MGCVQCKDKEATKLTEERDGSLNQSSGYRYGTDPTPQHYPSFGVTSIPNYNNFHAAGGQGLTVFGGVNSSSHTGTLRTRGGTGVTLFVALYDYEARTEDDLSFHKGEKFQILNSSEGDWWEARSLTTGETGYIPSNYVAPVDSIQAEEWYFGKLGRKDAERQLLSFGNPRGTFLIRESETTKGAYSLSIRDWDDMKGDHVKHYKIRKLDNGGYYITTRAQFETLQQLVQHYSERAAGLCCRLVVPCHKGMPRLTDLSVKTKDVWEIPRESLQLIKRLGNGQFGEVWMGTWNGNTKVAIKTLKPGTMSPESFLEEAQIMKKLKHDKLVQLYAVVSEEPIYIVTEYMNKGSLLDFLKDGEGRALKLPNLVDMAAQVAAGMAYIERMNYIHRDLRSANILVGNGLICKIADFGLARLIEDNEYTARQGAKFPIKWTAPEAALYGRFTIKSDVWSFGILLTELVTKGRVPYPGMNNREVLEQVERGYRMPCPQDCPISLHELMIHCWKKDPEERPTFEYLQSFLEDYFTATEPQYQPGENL

Compared with QLHEHCKIHKE [NSMAF_Y626_Y626C], QPRDIYHQTWA [GBA_Y244_G241R] is higher in phosphorylation enrichment: 0.633 for the first, 1.77 for the second.

Going from TKHTFYKQPMF [GBA_Y451_D448H] to KAPPTYDNVLQ [CYP3A4_Y347_T349N], the phosphorylation enrichment rises from 0.478 to 0.978.

Going from RGRKVYLEGGF [PRIM2_Y201_D204G] to NTFEKYLEEEF [TF_Y669_G671E_YF], the phosphorylation enrichment rises from 0.351 to 0.389.

Compared with FPPISYLHAIS [MVD_Y276_N278H], GVTLLYYGRDN [ADGRD1_Y85_Y89D] is lower in phosphorylation enrichment: 0.602 for the first, 0.545 for the second.

Going from SLGSPYGQPPC [PDLIM4_Y137_R142C] to DEYLEHRRIVG [FAM221A_Y20_Y20H], the phosphorylation enrichment falls from 0.458 to 0.399.

First: TNQVICLNPPI [DYNC1H1_Y970_Y970C]
Second: DFPGNYSGYDD [POLR1C_Y33]
The phosphorylation enrichment of the first is lower: 0.459 for the first, 0.675 for the second.

Going from WYQTKYEELQI [KRT6B_Y360] to AFPVSYSSPGA [RET_Y687_S690P], the phosphorylation enrichment rises from 0.474 to 0.518.

Going from RFVVLYDAELT [ERCC4_Y581_YF] to VLTSKYLGGGG [HBA1_Y141_R142L], the phosphorylation enrichment falls from 0.657 to 0.275.

First: AGAIIYTSRFQ [PFAS_Y538]
Second: ALAHKYRGGGG [HBD_Y146_H147R]
The phosphorylation enrichment of the first is higher: 0.58 for the first, 0.335 for the second.

Compared with EYQLPYYNMVP [BMPR1A_Y457], EKFVPYFDLFM [IPO5_Y530_YF] is lower in phosphorylation enrichment: 3.83 for the first, 0.57 for the second.

Compared with KGRGEYFAIKA [PRKCD_Y374], KVASVYEALGF [NT5C_Y65_P68L] is higher in phosphorylation enrichment: 0.426 for the first, 10.3 for the second.

Going from FADIAYNYRRG [PAH_Y166_H170R] to RKKEEYKMAPF [F8_Y1990_L1994P_YF], the phosphorylation enrichment rises from 0.466 to 0.558.

First: LADMNYVHRDL [EPHB2_Y742]
Second: QPGTDYKIFRF [FN1_Y1970_L1974R_YF]
The phosphorylation enrichment of the first is lower: 0.481 for the first, 0.529 for the second.

First: QSSALYEDCFL [ASS1_Y83_R86C_YF]
Second: HKLSYNEYDFE [BTK_Y40_Y40N]
The phosphorylation enrichment of the first is lower: 3.02 for the first, 3.26 for the second.

Work on SVTCRYSPALN [TP53_Y126_T125R] yielded a phosphorylation enrichment of 0.397.
